The source of these data is patent US20110136223A1 (Genentech, published 2011).

A value given as a limit tells only on which side of the number the result lay.

Test [1] has as its target T1, recombinant soluble rat GDNFRα (rat, UniProt Q62997 25-430, limits assumed).
T1 construct: also called rGDNFRα; GFR-alpha-1
T1 sequence: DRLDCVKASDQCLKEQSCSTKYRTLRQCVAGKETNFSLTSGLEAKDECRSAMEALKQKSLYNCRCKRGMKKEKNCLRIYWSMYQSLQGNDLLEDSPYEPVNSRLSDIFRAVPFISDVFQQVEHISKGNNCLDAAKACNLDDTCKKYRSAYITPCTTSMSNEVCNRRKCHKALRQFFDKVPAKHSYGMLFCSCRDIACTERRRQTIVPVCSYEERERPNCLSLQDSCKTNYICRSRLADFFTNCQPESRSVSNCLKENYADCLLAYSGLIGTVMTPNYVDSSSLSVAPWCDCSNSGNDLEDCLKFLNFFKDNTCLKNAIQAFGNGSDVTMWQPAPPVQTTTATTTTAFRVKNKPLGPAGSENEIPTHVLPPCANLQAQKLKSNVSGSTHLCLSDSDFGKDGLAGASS
In words: competition binding of 125I-rGDNF to soluble rGDNFRα, Scatchard analysis.

The target in test [2] is T2, rat NTNRα, endogenous on embryonic (E14) rat spinal motoneurons (rat).
T2 sequence (chain, GPI-linked): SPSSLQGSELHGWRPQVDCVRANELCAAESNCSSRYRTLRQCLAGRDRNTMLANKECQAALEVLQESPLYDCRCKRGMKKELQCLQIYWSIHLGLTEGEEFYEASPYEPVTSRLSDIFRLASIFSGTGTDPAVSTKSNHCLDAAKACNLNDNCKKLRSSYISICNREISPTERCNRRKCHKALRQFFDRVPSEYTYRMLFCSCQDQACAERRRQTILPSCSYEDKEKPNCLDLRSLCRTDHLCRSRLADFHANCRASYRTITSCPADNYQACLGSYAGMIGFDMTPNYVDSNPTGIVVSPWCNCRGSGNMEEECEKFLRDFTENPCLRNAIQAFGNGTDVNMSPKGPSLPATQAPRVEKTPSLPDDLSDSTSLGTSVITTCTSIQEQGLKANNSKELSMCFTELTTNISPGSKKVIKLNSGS
As to the kind of experiment: cell-based or functional assay.

The target of test [3] is T1, recombinant soluble rat GDNFRα. In words: displacement of 125I-rGDNF from soluble GDNFRα by unlabeled NTN (10 nM).
Test [4] has the same target. In words: binding of biotinylated NTN.

B1: rat glial cell line-derived neurotrophic factor (ligand, UniProt Q07731 78-211, looked up)
chain: SPDKQAAALPRRERNRQAAAASPENSRGKGRRGQRGKNRGCVLTAIHLNVTDLGLGYETKEELIFRYCSGSCEAAETMYDKILKNLSRSRRLTSDKVGQACCRPVAFDDDLSFLDDSLVYHILRKHSAKRCGCI
modifications: 125I-labelled when used as tracer (iodinated either on tyrosine by the Bolton Hunter method or on lysine using lactoperoxidase)
notes: also called rGDNF; rat GDNF
For B1, in test [1], the dissociation constant (Kd) is 3 pM.

B2: Neurturin (NTN), species not stated at the place of use (ligand, UniProt Q99748 96-197, looked up, species assumed)
Neurturin: ARLGARPCGLRELEVRVSELGLGYASDETVLFRYCAGACEAAARVYDLGLRRLRQRRRLRRERVRAQPCCRPTAYEDEVSFLDAHSRYHTVHELSARECACV
In test [2], B2 returned a reduction of the motoneuron survival response to NTN after PIPLC treatment (FIG. 7C) of 50 to 90% and a survival of E14 rat spinal motoneurons, counted 72 hours after addition of factor of 50%. In test [3], the equilibrium dissociation constant (Kd) is > 0.001 µM.

B3: mouse Neurturin (ligand, UniProt P97463 96-195, looked up)
chain: PGARPCGLRELEVRVSELGLGYTSDETVLFRYCAGACEAAIRIYDLGLRRLRQRRRVRRERARAHPCCRPTAYEDEVSFLDVHSRYHTLQELSARECACV
modifications: 125I-labelled when used as tracer
notes: also called mouse NTN; mNTN
Regarding B3, the Kd in test [4] is > 1000 µM.
